The data set is described as follows: protein stability index of a GFP-peptide fusion (GPS, HEK-293T) (PSI 1-6); higher = more stable. To be noted: c terminus: a fixed tail appended.

± gives the standard deviation.
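Further: 24-mer peptide tiles fused after GFP, lentivirally expressed, FACS-sorted into six equal bins by GFP/DsRed ratio, decoded by Illumina sequencing, PSI is the read-weighted mean bin number.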

Consider KDNEFTSKPWHWPINYQGLRFSGV [POMT2], for which the protein stability index was 2.23 ± 0.23 (treatment: DMSO) and 2.42 ± 0.22 (treatment: MLN4924 1 uM, 8 h).
In the same order, the values of KECGKVFSQSAGLIQHQRIHKGEK [ZSCAN9] are 4.42 ± 0.16 and 4.48 ± 0.3.
For KEEAGAPGGGAGMAAGFPYALRAY [CEBPB] the same measures were 3.06 ± 0.13 and 3.31 ± 0.15.
For KELVEFAQDDDRLREERKKAKKNK [CLINT1] the same measures were 5.49 ± 0.096 and 5.53 ± 0.17.
For KFHHSDCLSTWLLHFIATNYLIFS [RHOBTB3], the protein stability index by setting is: (treatment: DMSO) 3.21 ± 0.23; (treatment: MLN4924 1 uM, 8 h) 3.05 ± 0.24.
For KFLIWDTAGQERFRALAPMYYRGS [RAB22A] the same measures were 2.39 ± 0.23 and 2.55 ± 0.33.
In the same order, the values of KGISQTNLITTVTPEKKAEEERDE [EPB41L3] are 5.54 ± 0.13 and 5.59 ± 0.2.
For KHGIEYQSKPLLSAFADIIHSLKE [FADS1] the same measures were 2.51 ± 0.44 and 2.81 ± 0.49.
As for KHSVLLSASRKSAEQLRIELNAEK [WEE1], the protein stability index runs as follows: (treatment: DMSO) 3.92 ± 0.32; (treatment: MLN4924 1 uM, 8 h) 4.16 ± 0.21.
In the same order, the values of KIEDFREEMWTFRGKIHAFRGQIL [CCDC70] are 2.41 ± 0.24 and 2.09 ± 0.31.
For KIKEKYIDQEELNKTKPIWTRNPD [HSP90AB1] the same measures were 3.71 ± 0.26 and 3.96 ± 0.24.
In the same order, the values of KILHTAWHPAENIIAIAATNNLYI [PPP2R2C] are 2.81 ± 0.54 and 2.93 ± 0.53.
On to KIMEAESQKATRECEKSALTPGFS [FAN1], for which the protein stability index was determined as 4.86 ± 0.29 (treatment: DMSO) and 4.84 ± 0.14 (treatment: MLN4924 1 uM, 8 h).
In the same order, the values of KIWPEIKVPRPDALDNESWGFVHP [RETREG3] are 2.68 ± 0.48 and 2.57 ± 0.54.
In the same order, the values of KKEELLFDDGDDIMATLGFGDSPK [FBF1] are 4.54 ± 0.2 and 4.59 ± 0.27.
In the same order, the values of KKKGMYRKAITEAANAARHVAPEI [PWWP2B] are 4.33 ± 0.045 and 4.5 ± 0.28.
For the sequence KKKKDKEKEKEKHKVKAEEEKKAK [BRD3], the protein stability index by setting is: (treatment: DMSO) 5.2 ± 0.3; (treatment: MLN4924 1 uM, 8 h) 5.66 ± 0.13.
For KKQPWWRKLFGQESGPSAEKYSVA [FUNDC2] the same measures were 3.1 ± 0.16 and 3.32 ± 0.35.
For KLERLKQQNEDLRRMAESLRIPEG [FUT8] the same measures were 3.87 ± 0.28 and 4 ± 0.3.
In the same order, the values of KLLKQMRILWKKIQENQRNLYEEG [TRIM43] are 1.88 ± 0.61 and 1.85 ± 0.081.
On to KMAHVIAACLYLVCRTEGTPHMLL [BRF1], for which the protein stability index by setting is: (treatment: DMSO) 3.26 ± 0.64; (treatment: MLN4924 1 uM, 8 h) 2.84 ± 0.42.
In the same order, the values of KMNGSHRDQGSSALSGVGGIRLPN [IKZF1] are 4.1 ± 0.32 and 3.8 ± 0.12.
As for KNALEKYGPLKPLPQTPHLEEDLK [MYBL2], the protein stability index is, setting by setting: (treatment: DMSO) 5.16 ± 0.38; (treatment: MLN4924 1 uM, 8 h) 5.11 ± 0.2.
For KPSGALGSESYKSSAGSAEQTAPG [EHMT1] the same measures were 5.26 ± 0.39 and 5.43 ± 0.22.
For KPSVDTEGPALVEIDRSVENTLLN [MIA2] the same measures were 4.99 ± 0.23 and 5.07 ± 0.26.
In the same order, the values of KQKYFYKGGLVWDENSSDGRYVKE [CLK3] are 3.53 ± 0.2 and 3.62 ± 0.043.
In the case of KQLRRQMWWRGCKIKAIMALVAAI [VAMP4], the protein stability index runs as follows: (treatment: DMSO) 1.91 ± 0.44; (treatment: MLN4924 1 uM, 8 h) 1.92 ± 0.23.
For KQQIANLDKQAKLSRAYDGTTYLP [USP39] the same measures were 3.62 ± 0.19 and 3.87 ± 0.41.
With KRRKSMSGASPKESTNPEKAHETL [CDC25A], the protein stability index was 5.24 ± 0.25 (treatment: DMSO) and 5.03 ± 0.23 (treatment: MLN4924 1 uM, 8 h).
For KRRRSVTPPEEQQEAEEPKARVLR [CDC25B] the same measures were 5.32 ± 0.24 and 5.67 ± 0.21.
For KRSQSMKSYPSSELRNMCDEHIAS [CLCN6] the same measures were 4.56 ± 0.34 and 4.734 ± 0.012.
For KSEYMEIEEDMNNSIAHYRQVNIR [KCNA1] the same measures were 3.34 ± 0.2 and 3.57 ± 0.53.
KSKKYSDVEVPASVTGYSFASDGD [ADD1]: the protein stability index by setting is: (treatment: DMSO) 4.68 ± 0.38; (treatment: MLN4924 1 uM, 8 h) 4.82 ± 0.22.
For KSSIYESDFQIEPGFYATYESTLF [MIA2] the same measures were 2.33 ± 0.52 and 2.3 ± 0.31.
In the same order, the values of KTSAALSTVGSAISRKLGDMRNSA [TPD52L2] are 3.64 ± 0.29 and 3.7 ± 0.29.
Consider KWLPQQNAAHSLLSTNDKTIKLWK [PPP2R2C], for which the protein stability index turned out to be 2.88 ± 0.096 (treatment: DMSO) and 3.09 ± 0.32 (treatment: MLN4924 1 uM, 8 h).

Source of the values: the supplement of paper PMC10567573.
